Laboratory results as given in the supplement of paper PMC10126150.
± gives the standard deviation of the averaged measurements.

Test system: ATP
Assay: switch fluorescence ratio, 500 uM ATP over buffer (Cy3 cluster intensity, sum of 5 cycles each) (fold (ratio)); higher = stronger signal-on switching upon ATP binding; sequences stand for … in TCGTCGGCAGCGTCAGATGTGTATAAGAGACAGTTTTTTTTTTTTTTTTTTTTTTTTT…TC
Settings: aptamer strand: ATP DNA aptamer (quencher-CACCTGGGGGAGTATTGCGGAGGAAGG + anchor), 100 nM annealed; ATP concentration: 500 uM
Outline: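 Cy3-labelled switching-strand clusters on a modified Illumina MiSeq flow-cell were annealed to 100 nM quencher-labelled ATP aptamer and imaged first in selection buffer, then after 15 min with 500 uM ATP at 22 °C. NaOH stripping and re-annealing separated each of five buffer/ATP cycles, and clusters outside 100-1000 RFU were excluded. The fluorescence ratio sums target-cycle Cy3 intensity over buffer-cycle Cy3 intensity per cluster and averages it per switch-domain sequence.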
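Further: ATP exposure 15 min at 22 °C before imaging.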

Sequence | switch fluorescence ratio
CTATTTCTGA | 0.931 ± 0.027
CTATTTTGAT | 0.979 ± 0.024
CTATTTTTAG | 0.9968 ± 0.0021
CTCAGCGGGT | 1.49 ± 0.68
CTCAGGATGT | 1.06 ± 0.026
CTCAGTTTTA | 1.002 ± 0.0083
CTCATATGCA | 1 ± 0.029
CTCATATTTA | 1.01 ± 0.019
CTCATTGGGC | 0.991 ± 0.027
CTCATTTGAC | 1.032 ± 0.0056
CTCCAGAGGG | 2.47 ± 1.8
CTCCATTGAT | 1.01 ± 0.042
CTCGAGAAGA | 1.01 ± 0.022
CTCGATGGGA | 0.974 ± 0.061
CTCGATTGTA | 0.999 ± 0.048
CTCGGCCACT | 2.26 ± 1.6
CTCGGGGGTA | 0.963 ± 0.031
CTCGGTTTGG | 1.01 ± 0.028
CTCGTCTGAG | 1 ± 0.023
CTCGTTTAGA | 1.022 ± 0.0084
CTCTCTTTGA | 0.963 ± 0.015
CTCTGACGGC | 1.12 ± 0.12
CTCTGATGGG | 0.986 ± 0.021
CTCTGGCGTT | 1.51 ± 0.66
CTCTTAGGAT | 1.02 ± 0.023

Sequence | switch fluorescence ratio
CTCTTGGGAA | 0.992 ± 0.014
CTCTTGGGGC | 0.987 ± 0.041
CTCTTGGGGT | 0.997 ± 0.021
CTCTTTTGGT | 0.975 ± 0.02
CTGAAAACTA | 1.02 ± 0.059
CTGAAATGGT | 0.9928 ± 0.0041
CTGAATTAGG | 0.988 ± 0.02
CTGACGGTAG | 1.03 ± 0.022
CTGACGTTTT | 1.18 ± 0.2
CTGACTCGGT | 1.12 ± 0.013
CTGACTTACG | 1.11 ± 0.016
CTGACTTCAT | 1.0521 ± 0.00045
CTGAGAGACA | 0.991 ± 0.04
CTGAGAGATG | 0.9914 ± 0.0072
CTGAGCTGCA | 1.12 ± 0.036
CTGAGGAGGA | 1.031 ± 0.0076
CTGAGGGCG | 1.045 ± 0.0058
CTGAGGGGGC | 1.02 ± 0.016
CTGAGGTATG | 1.023 ± 0.0057
CTGATAAGCG | 0.991 ± 0.039
CTGATATGTA | 0.969 ± 0.045
CTGATATTGT | 0.9844 ± 0.0066
CTGATGAGTT | 0.982 ± 0.019
CTGATTCCTG | 1.01 ± 0.04
CTGCAGCGTC | 1.29 ± 0.053

Sequence | switch fluorescence ratio
CTGCGAATAA | 1.4 ± 0.098
CTGCGGCTGT | 1.02 ± 0.0053
CTGCGGGTGC | 1.31 ± 0.2
CTGCGGTGGG | 1.006 ± 0.0051
CTGCGTCGTT | 0.9967 ± 0.004
CTGCTCACAC | 1.22 ± 0.046
CTGCTTTGTC | 0.941 ± 0.0058
CTGGACCTTC | 1.66 ± 0.043
CTGGAGGGA | 1 ± 0.07
CTGGAGGGAC | 1.06 ± 0.026
CTGGAGTCTG | 1.11 ± 0.086
CTGGATTGGG | 0.98 ± 0.028
CTGGCAGGAA | 1.01 ± 0.051
CTGGCTGGTT | 1.01 ± 0.013
CTGGGAAGGC | 1.13 ± 0.04
CTGGGACCAG | 1.019 ± 0.007
CTGGGACGAT | 0.998 ± 0.03
CTGGGAGAAT | 1 ± 0.024
CTGGGAGGCA | 0.9871 ± 0.0098
CTGGGCCGGT | 1.02 ± 0.063
CTGGGCTTAG | 0.982 ± 0.037
CTGGGGAAAA | 1.57 ± 0.94
CTGGGGCCTA | 0.982 ± 0.023
CTGGGGGCAG | 1.036 ± 0.0073
CTGGGGGCTC | 1.01 ± 0.018

Sequence | switch fluorescence ratio
CTGGGGGTGT | 1.05 ± 0.04
CTGGGGTAGT | 1.03 ± 0.022
CTGGGGTGTG | 1.01 ± 0.039
CTGGGTAGGC | 0.992 ± 0.018
CTGGGTATAG | 1.02 ± 0.032
CTGGGTATTC | 1.03 ± 0.032
CTGGGTCACA | 1.02 ± 0.011
CTGGGTCGGC | 0.965 ± 0.04
CTGGGTTCCT | 1.02 ± 0.024
CTGGGTTGTT | 1.0204 ± 0.00077
CTGGGTTTAA | 1.02 ± 0.013
CTGGGTTTTT | 0.992 ± 0.03
CTGGTAACCG | 1 ± 0.06
CTGGTAGACT | 0.992 ± 0.023
CTGGTCCGGA | 0.948 ± 0.0035
CTGGTCGCGT | 0.9873 ± 0.0081
CTGGTGAGGG | 0.9931 ± 0.0091
CTGGTGGTTT | 1.01 ± 0.0047
CTGGTGTCAC | 1.01 ± 0.029
CTGGTGTTCT | 1.01 ± 0.017
CTGGTTCAGG | 1.026 ± 0.0082
CTGGTTCGTC | 1.005 ± 0.0071
CTGGTTGGGG | 1 ± 0.017
CTGGTTTTAT | 0.9823 ± 0.009
CTGGTTTTCG | 1 ± 0.021

Sequence | switch fluorescence ratio
CTGGTTTTTT | 0.99 ± 0.01
CTGTAATGGT | 1.04 ± 0.061
CTGTAGATTG | 0.983 ± 0.019
CTGTATAAGT | 0.985 ± 0.015
CTGTCCATCC | 1.11 ± 0.035
CTGTGATGG | 1.0776 ± 0.00079
CTGTGCGCCA | 1.122 ± 0.0038
CTGTGGCCGG | 0.967 ± 0.017
CTGTGGGCTG | 0.989 ± 0.04
CTGTGGGGGG | 0.9869 ± 0.0097
CTGTGGGTAG | 1.03 ± 0.021
CTGTGGGTTT | 1.01 ± 0.026
CTGTGTGCAC | 1 ± 0.066
CTGTTCTGTG | 0.951 ± 0.033
CTGTTGGAAG | 0.969 ± 0.012
CTGTTGTTG | 1 ± 0.01
CTGTTTACTG | 0.987 ± 0.014
CTTAAATGTA | 0.982 ± 0.021
CTTAATCACT | 1.03 ± 0.083
CTTAATTTTT | 0.98 ± 0.032
CTTACGTGTG | 1.03 ± 0.034
CTTACGTTAT | 1.13 ± 0.036
CTTACTCTTT | 1.0258 ± 0.00043
CTTAGAAGCA | 0.9943 ± 0.0017
CTTAGAAGTT | 1.01 ± 0.027

Sequence | switch fluorescence ratio
CTTAGATAGT | 1.01 ± 0.0098
CTTAGATATT | 1.01 ± 0.045
CTTAGATGGG | 0.9579 ± 0.0064
CTTAGGACAG | 1.01 ± 0.035
CTTAGGGCGA | 0.9728 ± 0.001
CTTAGGGGTC | 0.997 ± 0.026
CTTAGGGTGT | 0.964 ± 0.04
CTTAGTCGGC | 0.967 ± 0.015
CTTATAATTT | 0.9947 ± 0.0082
CTTATAGCAT | 1.096 ± 0.0085
CTTATAGTAG | 0.9847 ± 0.0066
CTTATATGAG | 1.001 ± 0.0025
CTTATGAAGG | 0.989 ± 0.024
CTTATGAGCA | 1.038 ± 0.0023
CTTATTGGGT | 0.993 ± 0.011
CTTCAATTAT | 1.01 ± 0.029
CTTCAGGGGA | 1.01 ± 0.061
CTTCATAGAT | 1.02 ± 0.016
CTTCGCCTTT | 1.06 ± 0.016
CTTCGGAGTG | 1.02 ± 0.023
CTTCGGTGTG | 1.04 ± 0.13
CTTCGTATGG | 1 ± 0.029
CTTCTAGGGG | 1.05 ± 0.011
CTTCTATGTT | 0.984 ± 0.002
CTTCTGTGGG | 1.027 ± 0.0036

Sequence | switch fluorescence ratio
CTTCTTAAGA | 0.984 ± 0.046
CTTCTTGCTG | 0.972 ± 0.011
CTTGAAAGGG | 0.997 ± 0.02
CTTGAATACT | 1.05 ± 0.03
CTTGACAAGG | 0.982 ± 0.014
CTTGACATGT | 0.976 ± 0.016
CTTGAGGGGG | 1.04 ± 0.092
CTTGATGCAG | 0.996 ± 0.053
CTTGATTTGA | 1.001 ± 0.0089
CTTGCATTTT | 1.04 ± 0.031
CTTGCCGCGC | 1.13 ± 0.017
CTTGCGTCAC | 1.18 ± 0.044
CTTGCTGGTT | 0.999 ± 0.028
CTTGGAGGGA | 1.02 ± 0.03
CTTGGAGTTT | 1 ± 0.034
CTTGGGAATT | 0.979 ± 0.044
CTTGGGAGAA | 0.9961 ± 0.0032
CTTGGGCCCT | 0.979 ± 0.033
CTTGGGTTGG | 0.997 ± 0.028
CTTGGTCTGA | 0.994 ± 0.024
CTTGGTGGAC | 0.97 ± 0.048
CTTGGTTAGT | 1.03 ± 0.056
CTTGTAAAGG | 0.9825 ± 0.00043
CTTGTAGGGT | 1.01 ± 0.021
CTTGTATCGT | 0.971 ± 0.015

Sequence | switch fluorescence ratio
CTTGTATTGG | 1.03 ± 0.072
CTTGTCATGA | 1.02 ± 0.017
CTTGTTATTG | 0.9602 ± 0.0071
CTTGTTGATG | 1 ± 0.036
CTTGTTGTTC | 0.9981 ± 0.0063
CTTTAATCC | 1.27 ± 0.48
CTTTCATTTT | 0.972 ± 0.036
CTTTCCGAAG | 2.72 ± 0.03
CTTTCGTCTG | 1.01 ± 0.035
CTTTCGTGGA | 1 ± 0.022
CTTTCTAGCG | 0.995 ± 0.032
CTTTCTATGT | 0.986 ± 0.029
CTTTCTTG | 1.01 ± 0.043
CTTTGAATGT | 0.983 ± 0.03
CTTTGAGGTG | 1.04 ± 0.069
CTTTGGCAGA | 1.03 ± 0.043
CTTTGGCAGC | 1.06 ± 0.017
CTTTGGCCGG | 1.011 ± 0.0087
CTTTGGCGCC | 0.986 ± 0.014
CTTTGGCTGA | 0.998 ± 0.025
CTTTGGGGTT | 1.01 ± 0.032
CTTTGTTGG | 0.9646 ± 0.0024
CTTTTAATTT | 1.04 ± 0.022
CTTTTAGCTG | 1 ± 0.019
CTTTTAGGCT | 1.02 ± 0.092
